Measurements: publication PMC6358617

What follows are sequences tested on rituximab (MabThera, lot N7075B10) (assay: SAW). Details: 20 mM Tris-HCl pH 7.6, 100 mM NaCl, 2 mM MgCl2, 5 mM KCl, 1 mM CaCl2, 0.02% Tween 20; SAW at 22 C (protein A chip-captured rituximab); ELASA at room ….

Question: How did the Kd turn out when “CGTGGGTGGGGATTGTGGTTTGGCTGATGGGGTGCTGGTT [RA6]” was run?
Answer: The Kd was 887 nM.

Question: “CGGCGGGGGGAGGATTGTGGTCTGCTCATGGCTGCCGTTT [RA1]” was tested. Which Kd did it give?
Answer: Its Kd is 683 nM.

Question: Which Kd does the source give for “TGGGGGTAGGATTGTGGTTGGCTTTAATTGCTTTGGTGGT [RA2]” here?
Answer: The Kd was 394 nM.

Question: How did the Kd turn out when “GGGGGTGAGGATTGTGGTTTGGCTTATTGGTTTGCTGGTG [RA3]” was run?
Answer: Its Kd is 713 nM.

Question: How did the Kd turn out when “TATACTGGGCCGTGCGTGACTTTTCCGTGCTGCATGAGAG [RA4]” was run?
Answer: Its Kd is 354 nM.
